Assay results published in US20240115745A1 (3B PHARMACEUTICALS, published 2024).
*1 amine or outer side, *2 acyl side, *3 side chain or, on linkers, in order; H or OH if unused. Bridges are numbered along the chain shown (N, C = ends). Primed or numbered codes have the meaning given here. [ ]: non-standard residue; d: D form. The star is where a group is joined. mli = maleimide cyclization element: 3,4-maleimide inserted symmetrically, forming a vinyl thioether with each Cys sulfur; Ttds = 1,13-diamino-4,7,10-trioxatridecan-succinamic acid, NCCCOCCOCCOCCCNC(=O)CCC(=O)*; mli(DOTA-Ttd) = 3,4-N-(DOTA-Ttd)-maleimide bridging two Cys S atoms as vinyl thioethers; N4Ac = 6-carboxy-1,4,8,11-tetraazaundecane, NCCNCC(CNCCN)C(=O)*; Buur = n-butylaminocarbonyl blocking group, CCCCNC(=O)*; DOTA = O=C(O)CN1CCN(CC(=O)O)CCN(CC(=O)*)CCN(CC(=O)O)CC1; NODAGA = O=C(O)CN1CCN(CC(=O)O)CCN(C(CCC(=O)*)C(=O)O)CC1; Maleimide(3,4-diyl) = O=C1NC(=O)C([*:2])=C1[*:1]; Buur″ = n-butylaminocarbonyl, CCCCNC(=O)*; O2Oc = 3,6-dioxaoctanoic acid; β3hK = NCCCC[C@H](N)CC(=O)O; 4Amb = NCc1ccc(C(=O)O)cc1; hCys = N[C@@H](CCS)C(=O)O; Nle = CCCC[C@H](N)C(=O)O; Hexanoyl = CCCCCC(=O)*

B1: compound H-Met-[Cys-Pro-Pro-Thr-Glu-Phe-Cys]-Asp-His-Phe-Arg-Asp-NH2 (1001) (peptide)
peptide: MCPPTEFCDHFRD
HELM: PEPTIDE1{M.C.P.P.T.E.F.C.D.H.F.R.D.[am]}$PEPTIDE1,PEPTIDE1,2:R3-8:R3$$$V2.0
SMILES: CSCC[C@H](N)C(=O)N[C@H]1CSSC[C@@H](C(=O)N[C@@H](CC(=O)O)C(=O)N[C@@H](Cc2c[nH]cn2)C(=O)N[C@@H](Cc2ccccc2)C(=O)N[C@@H](CCCNC(=N)N)C(=O)N[C@@H](CC(=O)O)C(N)=O)NC(=O)[C@H](Cc2ccccc2)NC(=O)[C@H](CCC(=O)O)NC(=O)[C@H]([C@@H](C)O)NC(=O)[C@@H]2CCCN2C(=O)[C@@H]2CCCN2C1=O
B2: compound Buur-[Cys-Pro-Pro-Thr-Glu-Phe-Cys]-Bhk(DOTA)-OH (1014) (peptide)
peptide: {Buur″}-CPPTEFC[β3hK](DOTA)-OH
modifications: disulfide 1-7
SMILES: CCCCNC(=O)N[C@H]1CSSC[C@@H](C(=O)N[C@@H](CCCCNC(=O)CN2CCN(CC(=O)O)CCN(CC(=O)O)CCN(CC(=O)O)CC2)CC(=O)O)NC(=O)[C@H](Cc2ccccc2)NC(=O)[C@H](CCC(=O)O)NC(=O)[C@H]([C@@H](C)O)NC(=O)[C@@H]2CCCN2C(=O)[C@@H]2CCCN2C1=O
B3: compound Hex-[Cys(mli)-Pro-Pro-Thr-Glu-Phe-Cys]-Bhk(DOTA)-OH (2011) (peptide)
peptide: Hexanoyl-CPPTEFC[β3hK](DOTA)-OH
modifications: linker 1-7 via Maleimide(3,4-diyl)
SMILES: CCCCCC(=O)N[C@H]1CSC2=C(SC[C@@H](C(=O)N[C@@H](CCCCNC(=O)CN3CCN(CC(=O)O)CCN(CC(=O)O)CCN(CC(=O)O)CC3)CC(=O)O)NC(=O)[C@H](Cc3ccccc3)NC(=O)[C@H](CCC(=O)O)NC(=O)[C@H]([C@@H](C)O)NC(=O)[C@@H]3CCCN3C(=O)[C@@H]3CCCN3C1=O)C(=O)NC2=O
B4: compound Hex-[Cys-Pro-Pro-Thr-Glu-Phe-Cys]-Bhk(DOTA)-OH (1012) (peptide)
peptide: Hexanoyl-CPPTEFC[β3hK](DOTA)-OH
modifications: disulfide 1-7
SMILES: CCCCCC(=O)N[C@H]1CSSC[C@@H](C(=O)N[C@@H](CCCCNC(=O)CN2CCN(CC(=O)O)CCN(CC(=O)O)CCN(CC(=O)O)CC2)CC(=O)O)NC(=O)[C@H](Cc2ccccc2)NC(=O)[C@H](CCC(=O)O)NC(=O)[C@H]([C@@H](C)O)NC(=O)[C@@H]2CCCN2C(=O)[C@@H]2CCCN2C1=O
B5: compound Hex-[Cys-Pro-Pro-Thr-Gln-Phe-Cys]-Asp-Lys(DOTA)-NH2 (1016) (peptide)
peptide: Hexanoyl-CPPTQFCDK(DOTA)-NH2
modifications: disulfide 1-7
SMILES: CCCCCC(=O)N[C@H]1CSSC[C@@H](C(=O)N[C@@H](CC(=O)O)C(=O)N[C@@H](CCCCNC(=O)CN2CCN(CC(=O)O)CCN(CC(=O)O)CCN(CC(=O)O)CC2)C(N)=O)NC(=O)[C@H](Cc2ccccc2)NC(=O)[C@H](CCC(N)=O)NC(=O)[C@H]([C@@H](C)O)NC(=O)[C@@H]2CCCN2C(=O)[C@@H]2CCCN2C1=O
B6: compound Buur-[Cys-Pro-Pro-Thr-Glu-Phe-Cys]-Asp-Lys(DOTA)-NH2 (1015) (peptide)
peptide: Buur-CPPTEFCDK(DOTA)-NH2
modifications: disulfide 1-7
SMILES: CCCCNC(=O)N[C@H]1CSSC[C@@H](C(=O)N[C@@H](CC(=O)O)C(=O)N[C@@H](CCCCNC(=O)CN2CCN(CC(=O)O)CCN(CC(=O)O)CCN(CC(=O)O)CC2)C(N)=O)NC(=O)[C@H](Cc2ccccc2)NC(=O)[C@H](CCC(=O)O)NC(=O)[C@H]([C@@H](C)O)NC(=O)[C@@H]2CCCN2C(=O)[C@@H]2CCCN2C1=O
B7: compound Hex-[Cys-Pro-Pro-Thr-Glu-Phe-Cys]-Asp-Lys(DOTA)-NH2 (1013) (peptide)
peptide: Hexanoyl-CPPTEFCDK(DOTA)-NH2
modifications: disulfide 1-7
SMILES: CCCCCC(=O)N[C@H]1CSSC[C@@H](C(=O)N[C@@H](CC(=O)O)C(=O)N[C@@H](CCCCNC(=O)CN2CCN(CC(=O)O)CCN(CC(=O)O)CCN(CC(=O)O)CC2)C(N)=O)NC(=O)[C@H](Cc2ccccc2)NC(=O)[C@H](CCC(=O)O)NC(=O)[C@H]([C@@H](C)O)NC(=O)[C@@H]2CCCN2C(=O)[C@@H]2CCCN2C1=O
B8: compound Hex-[Cys-Pro-Pro-Thr-Glu-Phe-Cys]-Asp-Lys(N4Ac)-NH2 (1021) (peptide)
peptide: Hexanoyl-CPPTEFCDK(N4Ac)-NH2
modifications: disulfide 1-7
SMILES: CCCCCC(=O)N[C@H]1CSSC[C@@H](C(=O)N[C@@H](CC(=O)O)C(=O)N[C@@H](CCCCNC(=O)C(CNCCN)CNCCN)C(N)=O)NC(=O)[C@H](Cc2ccccc2)NC(=O)[C@H](CCC(=O)O)NC(=O)[C@H]([C@@H](C)O)NC(=O)[C@@H]2CCCN2C(=O)[C@@H]2CCCN2C1=O
B9: compound Hex-[Cys-Pro-Pro-Thr-Glu-Phe-Cys]-Asp-Lys(NODAGA)-NH2 (1020) (peptide)
peptide: Hexanoyl-CPPTEFCDK(NODAGA)-NH2
modifications: disulfide 1-7
SMILES: CCCCCC(=O)N[C@H]1CSSC[C@@H](C(=O)N[C@@H](CC(=O)O)C(=O)N[C@@H](CCCCNC(=O)CCC(C(=O)O)N2CCN(CC(=O)O)CCN(CC(=O)O)CC2)C(N)=O)NC(=O)[C@H](Cc2ccccc2)NC(=O)[C@H](CCC(=O)O)NC(=O)[C@H]([C@@H](C)O)NC(=O)[C@@H]2CCCN2C(=O)[C@@H]2CCCN2C1=O
B10: compound DOTA-Nle-[Cys-Pro-Pro-Thr-Glu-Phe-Cys]-Asp-NH2 (1004) (peptide)
peptide: CPPTEFCD
HELM: PEPTIDE1{[O=C(O)CN1CCN(CC(=O)O)CCN(CC(=O)[*:2])CCN(CC(=O)O)CC1].[Nle].C.P.P.T.E.F.C.D.[am]}$PEPTIDE1,PEPTIDE1,3:R3-9:R3$$$V2.0
SMILES: CCCC[C@H](NC(=O)CN1CCN(CC(=O)O)CCN(CC(=O)O)CCN(CC(=O)O)CC1)C(=O)N[C@H]1CSSC[C@@H](C(=O)N[C@@H](CC(=O)O)C(N)=O)NC(=O)[C@H](Cc2ccccc2)NC(=O)[C@H](CCC(=O)O)NC(=O)[C@H]([C@@H](C)O)NC(=O)[C@@H]2CCCN2C(=O)[C@@H]2CCCN2C1=O

How the values were obtained:
[1] = biological target: T1, fibroblast activation protein (FAP) on FAP-expressing human WI-38 fibroblasts (human, UniProt Q12884 1-760); test: competitive FACS on WI-38 cells vs 3 nM Cy5-labeled probe; A = pIC50 >7.0
T1 construct: Endogenous FAP on WI-38 cells (ECACC) in the FACS assay; also called human FAP
Protocol: FAP-expressing human WI-38 fibroblasts (ECACC) were cultured in EMEM including 15% fetal bovine serum, 2 mM L-Glutamine and 1% Non-essential amino acids. Cells were detached with Accutase (Biolegend, #BLD-423201) and washed in FACS buffer (PBS including 1% FBS). Cells were diluted in FACS buffer to a final concentration of 100.000 cells per ml and 200 μl of the cell suspension are transferred to a u-shaped non-binding 96-well plate (Greiner). […] Cell were washed twice with FACS buffer and resuspended in 200 μl FACS buffer. Cells were analyzed in an Attune NxT flow cytometer. Median fluorescence intensities (Cy5 channel) was calculated by Attune NxT software and plotted against peptide concentrations. Four parameter logistic (4PL) curve fitting and pIC50 calculations were performed using ActivityBase software.

[2] = biological target: Recombinant human FAP (R&D systems, #3715-SE) (human, UniProt Q12884 26-760); test: cell-based or functional assay

Row | pIC50 Category (FACS) [1] [pIC50] | pIC50 Category (Activity), FRET-based FAP protease activity assay [2] [pIC50] | Binder
1 | > 7 | > 7 | B1
2 | > 7 | > 7 | B2
3 | > 7 | > 7 | B3
4 | > 7 | > 7 | B4
5 | > 7 | > 7 | B5
6 | > 7 | > 7 | B6
7 | > 7 | > 7 | B7
8 | > 7 | > 7 | B8
9 | > 7 | > 7 | B9
10 | > 7 | > 7 | Hexanoyl-CPPTEFCDHFRD-NH2 (disulfide 1-7) [compound Hex-[Cys-Pro-Pro-Thr-Glu-Phe-Cys]-Asp-His-Phe-Arg-Asp-NH2 (1002)]
11 | > 7 | > 7 | Hexanoyl-CPPTQFCD-NH2 (linker 1-7 via mli) [compound Hex-[Cys(mli)-Pro-Pro-Thr-Gln-Phe-Cys]-Asp-NH2 (2001)]
12 |  | > 7 | B10
13 |  | > 7 | {DOTA-Ttds}-[Nle]CPPTEFCD-NH2 (linker 2-8 via mli) [compound DOTA-Ttds-Nle-[Cys(mli)-Pro-Pro-Thr-Glu-Phe-Cys]-Asp-NH2 (2007)]
14 |  | > 7 | {DOTA-Ttds}-[Nle]CPPTEFCD-NH2 (disulfide 2-8) [compound DOTA-Ttds-Nle-[Cys-Pro-Pro-Thr-Glu-Phe-Cys]-Asp-NH2 (1003)]
15 |  | > 7 | Hexanoyl-CPPTEFCD-NH2 (linker 1-7 via mli(DOTA-Ttd)) [compound Hex-[Cys(mli(DOTA-Ttd))-Pro-Pro-Thr-Glu-Phe-Cys]-Asp-NH2 (2020)]
16 | > 7 | > 7 | Hexanoyl-[hCys]PPTQF[hCys]D-NH2 (disulfide 1-7) [compound Hex-[Hcy-Pro-Pro-Thr-Gln-Phe-Hcy]-Asp-NH2 (2002)]
17 | > 7 | > 7 | {DOTA}-[Nle]CPPTQFCD-NH2 (linker 2-8 via mli) [compound DOTA-Nle-[Cys(mli)-Pro-Pro-Thr-Gln-Phe-Cys]-Asp-NH2 (2003)]
18 | > 7 | > 7 | {DOTA-O2Oc}-[Nle]CPPTQFCD-NH2 (linker 2-8 via mli) [compound DOTA-O2Oc-Nle-[Cys(mli)-Pro-Pro-Thr-Gln-Phe-Cys]-Asp-NH2 (2004)]
19 | > 7 | > 7 | {DOTA-Ttds}-[Nle]CPPTQFCD-NH2 (linker 2-8 via mli) [compound DOTA-Ttds-Nle-[Cys(mli)-Pro-Pro-Thr-Gln-Phe-Cys]-Asp-NH2 (2005)]
20 | > 7 | > 7 | {DOTA-Ttds}-[Nle]CPPTEFCD[4Amb]R-NH2 (disulfide 2-8, By the running order it belongs to 1007) [compound DOTA-Ttds-Nle-[Cys-Pro-Pro-Thr-Glu-Phe-Cys]-Asp-Pamb-Arg-NH2 (1007)]
21 | > 7 | > 7 | {DOTA-Ttds}-[Nle]CPPTQFCD[4Amb]R-NH2 (linker 2-8 via Maleimide(3,4-diyl)) [compound DOTA-Ttds-Nle-[Cys(mli)-Pro-Pro-Thr-Gln-Phe-Cys]-Asp-Pamb-Arg-NH2 (2006)]
22 | > 7 | > 7 | Hexanoyl-CPPTQFCDK(DOTA)-NH2 (linker 1-7 via mli) [compound Hex-[Cys(mli)-Pro-Pro-Thr-Gln-Phe-Cys]-Asp-Lys(DOTA)-NH2 (2012)]
23 | > 7 | > 7 | Buur-CPPTQFCDK(DOTA)-NH2 (linker 1-7 via mli) [compound Buur-[Cys(mli)-Pro-Pro-Thr-Gln-Phe-Cys]-Asp-Lys(DOTA)-NH2 (2014)]
